This is an account of results in article doi:10.1101/2020.02.12.946020.

This data set has as its target hMutLγ (MLH1-MLH3) (human, UniProt P40692;Q9UHC1 1-756;1-1453). Nature of the data set: EMSA.

hMutLγ (MLH1-MLH3), sequence (P40692 whole entry, chain 1 of 2): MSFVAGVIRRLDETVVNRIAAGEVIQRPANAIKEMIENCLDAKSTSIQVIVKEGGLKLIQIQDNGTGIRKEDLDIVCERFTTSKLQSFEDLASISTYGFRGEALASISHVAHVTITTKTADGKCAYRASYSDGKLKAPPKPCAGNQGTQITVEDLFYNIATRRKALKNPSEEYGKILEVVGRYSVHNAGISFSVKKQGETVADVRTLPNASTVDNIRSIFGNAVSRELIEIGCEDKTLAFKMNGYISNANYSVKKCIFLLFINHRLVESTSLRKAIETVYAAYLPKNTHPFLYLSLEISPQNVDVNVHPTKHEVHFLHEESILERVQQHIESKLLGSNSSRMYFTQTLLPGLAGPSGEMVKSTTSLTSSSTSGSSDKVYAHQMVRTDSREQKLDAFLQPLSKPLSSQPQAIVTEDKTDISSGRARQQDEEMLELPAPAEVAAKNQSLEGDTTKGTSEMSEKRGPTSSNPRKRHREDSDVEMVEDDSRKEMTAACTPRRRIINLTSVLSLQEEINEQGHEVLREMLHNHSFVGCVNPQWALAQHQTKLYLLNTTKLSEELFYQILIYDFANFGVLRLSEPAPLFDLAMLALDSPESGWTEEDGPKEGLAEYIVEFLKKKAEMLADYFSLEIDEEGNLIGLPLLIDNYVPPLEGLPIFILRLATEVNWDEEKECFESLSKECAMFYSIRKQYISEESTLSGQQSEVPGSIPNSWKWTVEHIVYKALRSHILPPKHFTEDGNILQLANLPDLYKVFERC
hMutLγ (MLH1-MLH3), sequence (Q9UHC1 whole entry, chain 2 of 2): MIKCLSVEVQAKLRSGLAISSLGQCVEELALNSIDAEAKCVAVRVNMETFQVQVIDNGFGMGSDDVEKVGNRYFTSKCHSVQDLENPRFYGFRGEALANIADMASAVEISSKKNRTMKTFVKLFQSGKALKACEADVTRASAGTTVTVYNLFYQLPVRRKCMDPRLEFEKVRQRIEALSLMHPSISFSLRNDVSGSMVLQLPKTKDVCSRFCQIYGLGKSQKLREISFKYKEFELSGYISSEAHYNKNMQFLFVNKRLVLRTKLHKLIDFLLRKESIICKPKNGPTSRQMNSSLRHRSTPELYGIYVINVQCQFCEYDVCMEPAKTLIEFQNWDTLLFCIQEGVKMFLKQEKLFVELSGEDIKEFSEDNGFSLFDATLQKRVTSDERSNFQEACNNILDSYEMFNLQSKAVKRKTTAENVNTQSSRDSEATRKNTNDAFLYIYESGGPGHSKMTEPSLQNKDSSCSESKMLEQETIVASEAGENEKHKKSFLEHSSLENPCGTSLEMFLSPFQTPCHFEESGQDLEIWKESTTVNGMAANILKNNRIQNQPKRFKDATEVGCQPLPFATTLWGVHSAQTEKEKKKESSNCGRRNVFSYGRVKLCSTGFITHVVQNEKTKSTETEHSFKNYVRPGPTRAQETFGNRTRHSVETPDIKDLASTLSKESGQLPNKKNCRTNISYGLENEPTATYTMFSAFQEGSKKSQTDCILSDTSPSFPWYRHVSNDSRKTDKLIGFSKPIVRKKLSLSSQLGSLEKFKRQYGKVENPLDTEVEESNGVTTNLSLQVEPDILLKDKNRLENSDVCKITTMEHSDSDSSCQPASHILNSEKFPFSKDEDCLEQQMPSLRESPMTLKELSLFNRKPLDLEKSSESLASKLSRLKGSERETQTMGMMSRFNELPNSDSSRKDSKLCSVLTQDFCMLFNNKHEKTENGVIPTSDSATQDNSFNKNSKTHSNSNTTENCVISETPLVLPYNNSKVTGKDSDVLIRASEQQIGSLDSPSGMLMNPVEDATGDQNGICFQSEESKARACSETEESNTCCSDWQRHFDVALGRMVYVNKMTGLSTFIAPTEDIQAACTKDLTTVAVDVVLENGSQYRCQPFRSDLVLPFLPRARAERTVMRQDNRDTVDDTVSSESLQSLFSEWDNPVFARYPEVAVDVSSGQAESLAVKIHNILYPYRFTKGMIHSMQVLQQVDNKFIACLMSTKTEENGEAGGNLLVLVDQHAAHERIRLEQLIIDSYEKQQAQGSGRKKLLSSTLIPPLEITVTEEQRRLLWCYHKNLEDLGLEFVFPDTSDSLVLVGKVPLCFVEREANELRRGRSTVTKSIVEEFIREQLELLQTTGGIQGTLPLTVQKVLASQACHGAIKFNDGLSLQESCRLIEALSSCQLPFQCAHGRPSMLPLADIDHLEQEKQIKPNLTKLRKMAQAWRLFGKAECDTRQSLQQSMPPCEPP

In the case of TTTTTTTTTTTTTTTTTTTTTTTTTTTTTTTTTTTTTTTT (ssDNA) [40 nt poly-dT ssDNA (dT40)], the binding result is on record as “binds”.
